Test results: PMC7532149, “Antibiotic export by MexB multidrug efflux transporter is allosterically controlled by a MexA-OprM chaperone-like complex” (Nature Communications, 2020)

T1: MexA (Pseudomonas aeruginosa), P52477
T1 chain: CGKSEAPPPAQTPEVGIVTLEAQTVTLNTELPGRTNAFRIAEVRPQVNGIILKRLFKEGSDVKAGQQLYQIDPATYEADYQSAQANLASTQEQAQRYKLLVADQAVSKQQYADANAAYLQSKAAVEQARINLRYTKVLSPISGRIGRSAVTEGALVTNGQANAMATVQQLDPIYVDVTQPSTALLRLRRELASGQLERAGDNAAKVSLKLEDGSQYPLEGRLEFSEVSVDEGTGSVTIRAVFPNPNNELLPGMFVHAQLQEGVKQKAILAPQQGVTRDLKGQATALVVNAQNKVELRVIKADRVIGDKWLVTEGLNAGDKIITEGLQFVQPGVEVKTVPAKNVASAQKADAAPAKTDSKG

B1: MexB (natural protein)
chain: MSKFFIDRPIFAWVIALVIMLAGGLSILSLPVNQYPAIAPPAIAVQVSYPGASAETVQDTVVQVIEQQMNGIDNLRYISSESNSDGSMTITVTFEQGTDPDIAQVQVQNKLQLATPLLPQEVQRQGIRVTKAVKNFLMVVGVVSTDGSMTKEDLSNYIVSNIQDPLSRTKGVGDFQVFGSQYSMRIWLDPAKLNSYQLTPGDVSSAIQAQNVQISSGQLGGLPAVKGQQLNATIIGKTRLQTAEQFENILLKVNPDGSQVRLKDVADVGLGGQDYSINAQFNGSPASGIAIKLATGANALDTAKAIRQTIANLEPFMPQGMKVVYPYDTTPVVSASIHEVVKTLGEAILLVFLVMYLFLQNFRATLIPTIAVPVVLLGTFGVLAAFGFSINTLTMFGMVLAIGLLVDDAIVVVENVERVMAEEGLSPREAARKSMGQIQGALVGIAMVLSAVFLPMAFFGGSTGVIYRQFSITIVSAMALSVIVALILTPALCATMLKPIEKGDHGEHKGGFFGWFNRMFLSTTHGYERGVASILKHRAPYLLIYVVIVAGMIWMFTRIPTAFLPDEDQGVLFAQVQTPPGSSAERTQVVVDSMREYLLEKESSSVSSVFTVTGFNFAGRGQSSGMAFIMLKPWEERPGGENSVFELAKRAQMHFFSFKDAMVFAFAPPSVLELGNATGFDLFLQDQAGVGHEVLLQARNKFLMLAAQNPALQRVRPNGMSDEPQYKLEIDDEKASALGVSLADINSTVSIAWGSSYVNDFIDRGRVKRVYLQGRPDARMNPDDLSKWYVRNDKGEMVPFNAFATGKWEYGSPKLERYNGVPAMEILGEPAPGLSSGDAMAAVEEIVKQLPKGVGYSWTGLSYEERLSGSQAPALYALSLLVVFLCLAALYESWSIPFSVMLVVPLGVIGALLATSMRGLSNDVFFQVGLLTTIGLSAKNAILIVEFAKELHEQGKGIVEAAIEACRMRLRPIVMTSLAFILGVVPLAISTGAGSGSQHAIGTGVIGGMVTATVLAIFWVPLFYVAVSTLFKDEASKQQASVEKGQ
notes: MexB, inner-membrane RND multidrug efflux transporter of Pseudomonas aeruginosa; wild type; Homotrimer, both alone in the nanodisc (MexB-solo, LTC form) and in the tripartite complex (MexB-trio, LTO form); also called MexB-solo; MexB-trio; source: reconstituted in POPC nanodiscs (MSP1E3D1) or DOPC/cholesterol proteoliposomes
B2: MexA, P52477 24-383 (natural protein)
chain: T1 chain
modifications: here or on the partner: lipid moiety of the N-terminal cysteine; lipid moiety of the N-terminal cysteine
B3: MexA (natural protein)
chain: T1 chain
modifications: lipid moiety of the N-terminal cysteine
notes: MexA, periplasmic membrane fusion lipoprotein of Pseudomonas aeruginosa; N-terminal cysteine carries a lipid moiety; Six copies (a hexamer of two non-equivalent protomers, MexA-I and MexA-II) stand in the tripartite complex; also called MexA-I; MexA-II; source: reconstituted with MexB in POPC nanodiscs or DOPC/cholesterol proteoliposomes
B4: OprM (natural protein)
chain: CSLIPDYQRPEAPVAAAYPQGQAYGQNTGAAAVPAADIGWREFFRDPQLQQLIGVALENNRDLRVAALNVEAFRAQYRIQRADLFPRIGVDGSGTRQRLPGDLSTTGSPAISSQYGVTLGTTAWELDLFGRLRSLRDQALEQYLATEQAQRSAQTTLVASVATAYLTLKADQAQLQLTKDTLGTYQKSFDLTQRSYDVGVASALDLRQAQTAVEGARATLAQYTRLVAQDQNALVLLLGSGIPANLPQGLGLDQTLLTEVPAGLPSDLLQRRPDILEAEHQLMAANASIGAARAAFFPSISLTANAGTMSRQLSGLFDAGSGSWLFQPSINLPIFTAGSLRASLDYAKIQKDINVAQYEKAIQTAFQEVADGLAARGTFTEQLQAQRDLVKASDEYYQLADKRYRTGVDNYLTLLDAQRSLFTAQQQLITDRLNQLTSEVNLYKALGGGWNQQTVTQQQTAKKEDPQA
notes: OprM, outer-membrane factor of the MexAB-OprM efflux system of Pseudomonas aeruginosa; Homotrimer; also called OprM-ND; outer-membrane factor (OMF); source: reconstituted in POPC nanodiscs (MSP1D1) or DOPC proteoliposomes

Tests used:
Experiment in all cases: cryo-EM structure; tripartite MexAB-OprM complex self-assembled from MexA and MexB in POPC nanodiscs and OprM in POPC nanodiscs; 10 mM Tris/Cl pH 7.4, 100 mM NaCl; enriched by SEC (Superose 6, detergent-free buffer); single-particle analysis, no symmetry imposed
[1] = target: the molecule itself
[2] = target: T1, MexA (Pseudomonas aeruginosa), P52477; conditions: remark: other sources report otherwise
OprM = target: B4; conditions: both partners purified

Row | Binder | stoichiometry N [1] | other results
1 | B1 | 3 | –
2 | B2 | – | stoichiometry N [2]: 6
3 | B3 | – | stoichiometry N (OprM): 2 MexA per OprM
4 | B4 | 3 | –
